Publication PMC10341432, “Cross-Linking Mass Spectrometry on P-Glycoprotein” (International Journal of Molecular Sciences, 2023)

Columns and labels:
[1] = biological target: T1, P-glycoprotein (human) on NIH 3T3 MDR1 cells after PNGase F treatment (Homo sapiens, UniProt P08183, all N-linked oligosaccharides removed from ECL1 by PNGase F); assay: flow cytometry on cells; living NIH 3T3 MDR1 cells treated with 0, 50, 100 or 200 U/mL PNGase F; 10 µg/mL 15D3 or UIC2 for 30 min at 37 °C in glucose-PBS; Alexa-488 anti-mouse goat secondary antibody; conditions: one partner purified
T1 construct: P-glycoprotein (MDR1, ABCB1), human; N-glycans of ECL1 removed on living cells; also called Pgp; deglycosylated Pgp; source: NIH 3T3 MDR1 mouse fibroblasts, human Mdr1 gene-transduced; living cells treated with PNGase F (50, 100 or 200 U/mL)
T1 sequence (P08183 whole entry): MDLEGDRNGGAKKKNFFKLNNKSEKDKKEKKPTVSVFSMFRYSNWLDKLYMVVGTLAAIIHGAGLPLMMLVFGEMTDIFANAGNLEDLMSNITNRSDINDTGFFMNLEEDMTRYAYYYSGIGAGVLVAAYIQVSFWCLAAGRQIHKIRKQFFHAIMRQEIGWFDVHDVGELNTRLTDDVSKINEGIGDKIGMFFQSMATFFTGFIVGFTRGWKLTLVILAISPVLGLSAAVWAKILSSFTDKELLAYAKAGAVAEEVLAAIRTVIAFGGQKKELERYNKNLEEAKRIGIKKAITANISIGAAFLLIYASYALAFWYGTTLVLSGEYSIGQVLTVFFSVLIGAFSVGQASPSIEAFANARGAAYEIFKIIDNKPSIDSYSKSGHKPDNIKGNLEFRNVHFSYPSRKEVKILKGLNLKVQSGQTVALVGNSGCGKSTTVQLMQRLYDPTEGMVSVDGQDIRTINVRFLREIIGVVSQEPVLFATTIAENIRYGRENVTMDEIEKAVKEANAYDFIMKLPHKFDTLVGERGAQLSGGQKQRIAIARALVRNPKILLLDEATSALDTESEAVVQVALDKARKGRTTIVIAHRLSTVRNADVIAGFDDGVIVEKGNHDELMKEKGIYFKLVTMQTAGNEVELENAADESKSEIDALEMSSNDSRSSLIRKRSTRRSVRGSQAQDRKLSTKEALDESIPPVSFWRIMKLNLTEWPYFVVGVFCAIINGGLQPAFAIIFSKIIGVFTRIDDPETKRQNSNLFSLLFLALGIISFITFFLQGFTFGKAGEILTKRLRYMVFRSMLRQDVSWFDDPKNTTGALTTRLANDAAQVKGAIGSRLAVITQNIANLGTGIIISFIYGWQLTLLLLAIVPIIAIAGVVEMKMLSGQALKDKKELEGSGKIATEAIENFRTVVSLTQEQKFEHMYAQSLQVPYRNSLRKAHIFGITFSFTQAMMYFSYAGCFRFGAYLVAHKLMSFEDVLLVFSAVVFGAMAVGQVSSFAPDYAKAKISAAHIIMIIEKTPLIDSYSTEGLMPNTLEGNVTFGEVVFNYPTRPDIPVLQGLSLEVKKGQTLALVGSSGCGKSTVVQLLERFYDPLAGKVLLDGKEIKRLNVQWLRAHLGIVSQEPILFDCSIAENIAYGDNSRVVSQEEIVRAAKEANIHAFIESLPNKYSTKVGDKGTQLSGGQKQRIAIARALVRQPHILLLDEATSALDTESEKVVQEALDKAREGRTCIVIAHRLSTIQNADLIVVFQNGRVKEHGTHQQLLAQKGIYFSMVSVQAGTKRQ

[2] = biological target: T2, P-glycoprotein (human), as expressed on NIH 3T3 MDR1 cells (human, UniProt P08183, N-glycans on ECL1); assay: as above; conditions: one partner purified
T2 construct: P-glycoprotein (MDR1, ABCB1), human; integral membrane protein on the cell surface; Cell line a gift from M. Gottesman; also called Pgp; multi-drug resistance protein 1; source: NIH 3T3 MDR1 mouse fibroblasts, human Mdr1 gene-transduced, stably expressing; on living cells and in membrane preparation (Mem-PER Plus kit)
T2 sequence (P08183 whole entry): as above

- binding result [1]: binds
- binding result [2]: binds
B1: 15D3 mouse monoclonal anti-Pgp antibody (antibody, V domains shown)
VH: EVKVVESGGVLVRPGGSLKLSCAASGFTFSRYTMSWVRQTPEKRLEWVATISSGGGNTYYPDSVKGRFTVSRDNAMSSLYLQMSSLRSEDTALYYCARYGAGDAWFAYWGQGTLVTVSA
VL: ELAMTQTPLSLPVSLGDQASISCRSSQSIVHSTGNTYLEWYLQKPGQSPKLLIYKVSNRFSGVPDRFSGSGSGTDFTLKISRLEAEDLGVYYCFQGSHFPRTFGGGTRLEIK
notes: mouse IgG1 constant part; IgG1; also called 15D3 mAb; source: hybridoma (ATCC HB-11342) supernatant or mouse ascites, purified (Protein G)
